Experimental data from the supplement of paper PMC9732359.
± gives the uncertainty stated by the source.

assay: protein stability index of a GFP-peptide fusion (yeast GPS) (PSI 1-4); higher = more stable; sorted into four equal gates, so the index is relative within each strain; details: san1∆
In short: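 Plasmids in a pooled yeast library fused tiled 17-residue yeast protein peptides downstream of GFP and also expressed Cherry. Mid-log cultures grown without leucine were sorted into four equal gates by GFP/Cherry fluorescence ratio. Each gate's plasmids were PCR-amplified and Illumina-sequenced, and reads were matched to strains by barcodes. The protein stability index is derived by multiplying each gate's read frequency by its gate number and summing the results.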

Row | Sequence | protein stability index
1 | HKKIKVAQPDSLRETNT [SIR2] | 2.6 ± 0.092
2 | HKQIHTTIFVKSTTPYV [POP7] | 2.15 ± 0.062
3 | HKTFLVANVKDLETLTM [RPL32] | 3.22 ± 0.09

same assay, conditions: ubr1∆

Row | Sequence | protein stability index
4 | GILDEIMFNHARIIRSE [RGR1] | 3.07 ± 0.032
5 | GILGNKAQAKMDKRAKT [RPL8B] | 3.63 ± 0.079
6 | GINKIPPKPRKVLQLLR [RPL7A] | 3.15 ± 0.069
7 | GIRWELISRLCPNSTGA [RPT1] | 2.19 ± 0.038
8 | GIVDELAYAVLGIALIA [RPN1] | 1.17 ± 0.062
9 | GKAATAKETHTKPSETP [YOR098C/NUP1] | 2.37 ± 0.091
10 | GKASLFAQGKRRYDRKQ [RPL42A] | 3.4 ± 0.072
11 | GKEHIVAALVSLTEKFS [ECM29] | 1.63 ± 0.042
12 | GKGIKLSIAEERDRRRA [RPS4A] | 3.23 ± 0.09
13 | GKHLSYQRSKRVNNPNV [RPL33A] | 2.78 ± 0.041
14 | GKIEKIAQSKKKNNKIK [SRP21] | 3.14 ± 0.057
15 | GKKKSATAVAHVKAGKG [RPS16A] | 2.53 ± 0.11
16 | GKKVLNKNQLLKRNRIR [POP1] | 3.05 ± 0.053
17 | GKPSFVFGASDKQAEGT [YOR098C/NUP1] | 3.29 ± 0.087
18 | GKRQVLLRPSSKVIIKF [RPS22B] | 2.15 ± 0.049
19 | GKTDYYQRKRLVTQHKA [RPL5] | 3.69 ± 0.22
20 | GKTGLSNMILGSVELST [YML103C/NUP188] | 2.33 ± 0.042
21 | GKTYMGWWGHMGGPKQK [QCR8] | 2.4 ± 0.14
22 | GKVRLWKATYSNEFKCM [YGL100W/SEH1] | 2.22 ± 0.03
23 | GLAVGLALINYGRQELA [RPN2] | 1.09 ± 0.053
24 | GLESLLNIGLGAVGLKD [YCS4] | 2.68 ± 0.065
25 | GLHPFEVAQLGSLACDT [RPB4] | 2.33 ± 0.08
26 | GLIPYPHHNQSPRNTYQ [RET1] | 2.93 ± 0.069
27 | GLIYSFNEENGEDSTKP [POP1] | 3.1 ± 0.17

Row | Sequence | protein stability index
28 | GLMSANNIIAEGIEKMG [FAS2] | 1.48 ± 0.084
29 | GLRNQNMVRNNNNNTID [GRR1] | 2.96 ± 0.038
30 | GLSAREAVKQAAKIIYL [PRE10] | 2.52 ± 0.053
31 | GLTSRLQRQQRKSKLNL [POP4] | 3.67 ± 0.27
32 | GLVKQHLDSFNYFVDTD [RET1] | 3.36 ± 0.075
33 | GNAKESKALLREISNFS [SRP72] | 3.01 ± 0.15
34 | GNIDTKNNILGSNVLKS [RRP43] | 3.041 ± 0.027
35 | GNISSSTVKKKDIVNIS [REC8] | 3.02 ± 0.05
36 | GNSEAIPGLSAGVNNDN [RTT102] | 3.47 ± 0.084
37 | GNSFHLMRELLKMMKLI [PRP8] | 2.43 ± 0.049
38 | GPENALNVYHYFGENSS [YJL039C/NUP192] | 2.65 ± 0.031
39 | GPRAVLTRQPTEGRSRD [RET1] | 3.34 ± 0.057
40 | GPSAMRLSRCIRDNKLV [RPC82] | 2.15 ± 0.099
41 | GQLEDFDSELIHLKQKL [SMC3] | 2.95 ± 0.17
42 | GQVVLTPLTFALPRGAR [RPL14A] | 1.89 ± 0.073
43 | GRFLRVPKEGLFYFDSS [BRR2] | 3.1 ± 0.054
44 | GRIRTTREDVSPHYNSQ [SSN3] | 1.73 ± 0.11
45 | GRNLGRIGTIVHKERHD [RPS4A] | 2.63 ± 0.061
46 | GRRLSMLASQANGGSTI [DSN1] | 2.29 ± 0.047
47 | GRTGNGNMGITTEMLDK [MED6] | 3.27 ± 0.04
48 | GRVYRPLFIVEDDESLG [RPB2] | 1.69 ± 0.034
49 | GSAATSGFEFSKEDTLR [RPN1] | 3.08 ± 0.13
50 | GSAITGPVGKECADLWP [RPL23A] | 2.64 ± 0.064
51 | GSARTRWEMEAFGEFSL [FAS2] | 2.24 ± 0.098

Row | Sequence | protein stability index
52 | GSGNNNEIESRQLTSLG [SNU114] | 3.19 ± 0.19
53 | GSKSASKQTPQPKAPRA [ISW2] | 3.23 ± 0.08
54 | GSLARAGKVKSQTPKVE [RPS30A] | 2.57 ± 0.05
55 | GSNYNPYFPGGSIAMAR [CYT1] | 2.35 ± 0.048
56 | GSPKSATSKTSEMLAKY [CDC53] | 3 ± 0.045
57 | GSPQMLANEERLSNEMH [RGR1] | 2.93 ± 0.054
58 | GSTTIEKKNDENSTSNS [YLR335W/NUP2] | 3.17 ± 0.044
59 | GSVMSASVEIVFHDPDH [SMC3] | 2.55 ± 0.061
60 | GSYNAFEPASRLQGIKL [COR1] | 2.99 ± 0.073
61 | GTHNMYKEIRDVSRVAA [RPL20A] | 2.29 ± 0.083
62 | GTKSNEKKDSGSSKPAF [YJL041W/NSP1] | 3.25 ± 0.069
63 | GTNPLSSDGAYTEQFQH [SSN2] | 3.06 ± 0.062
64 | GTPKTDSFIFDGTAKEV [MED4] | 2.65 ± 0.045
65 | GTPPMLHQRTHKQVYPL [DSN1] | 2.93 ± 0.056
66 | GVEEVEGEYELTEAVED [RPL5] | 3.24 ± 0.2
67 | GVERLIPVGDNTVVGIS [PRE4] | 2.69 ± 0.086
68 | GVEYRLRLRISRKRNEE [RPL31A] | 1.18 ± 0.22
69 | GVILMFAAILVLLVLPF [COB] | 1.14 ± 0.046
70 | GVRSNHLRSNILKDLIY [SMC1] | 2.82 ± 0.13
71 | GVSISVSFNSKQNEQLH [SMC3] | 2.35 ± 0.11
72 | GVSRQIAASAFLSLLNL [REC8] | 1.23 ± 0.038
73 | GWDSLASRNVWSFYNGN [SNU114] | 3.22 ± 0.066
74 | GWWGHMGGPKQKGITSY [QCR8] | 1.67 ± 0.075
75 | GYDKKKNKPELYQIDYL [PRE1] | 3.08 ± 0.09

Row | Sequence | protein stability index
76 | GYKSTVKSLRQGKSKLI [RPL30] | 1.48 ± 0.061
77 | GYVIKVFNNGIVVLVPK [DIS3] | 2.82 ± 0.067
78 | HASENISLSFSRPASYG [SIR4] | 3.19 ± 0.045
79 | HAYNITFNNQDKGLLPY [RPO31] | 2.91 ± 0.057
80 | HDIAYSKDGLPNKVKTE [RRP6] | 3.2 ± 0.29
81 | HDTLNNEIANSIIQSKQ [BRR2] | 2.88 ± 0.052
82 | HECRLRDMTYSAPIYVD [RET1] | 1.91 ± 0.061
83 | HENYIQDDDFPLDDAGT [MCD1] | 3 ± 0.046
84 | HEVQYQESSSTLSTHST [SIN4] | 2.83 ± 0.032
85 | HFAWLPTHIWNAKRSHM [POP1] | 1.5 ± 0.026
86 | HFFQIDGFNKTFHDELN [YML103C/NUP188] | 2.85 ± 0.091
87 | HFRAPSRILYKAIRGMV [RPL16B] | 2.21 ± 0.062
88 | HGKASRQQYYSGVQVGG [SNF6] | 2.21 ± 0.05
89 | HGVSFKKRAPRAVKEIK [RPL31A] | 3.2 ± 0.11
90 | HHWLLDKLSGCYAPRPS [RPS4A] | 1.42 ± 0.045
91 | HHYNPKTKKLNLSAFKI [BRR2] | 2.4 ± 0.042
92 | HIHDLEKFSPKSFISKL [SRP54] | 2.36 ± 0.028
93 | HIHKHVKDEAFDDLLKP [RET1] | 3.11 ± 0.15
94 | HIKEASEEVDDLSMVPK [SNF2] | 3.6 ± 0.16
95 | HIPICVTFSFFNPQDTE [RRP45] | 1.58 ± 0.046
96 | HIQGFPTLGERLDNLQD [DSN1] | 3.05 ± 0.073
97 | HKKIKVAQPDSLRETNT [SIR2] | 3.2 ± 0.053
98 | HKQIHTTIFVKSTTPYV [POP7] | 1.82 ± 0.03
99 | HKTFLVANVKDLETLTM [RPL32] | 2.83 ± 0.17
